In PMC8809517, “Cofactor-independent RNA editing by a synthetic S-type PPR protein”:

Legend:
Assay in all cases: high-throughput RNA pulldown from lysate on Ni-NTA beads; HRP: 50 mM Tris pH 8, 150 mM NaCl, 1 mM beta-mercaptoethanol, 50 ug/ml BSA, 3 ug/ml yeast RNA, 0.5% heparin; ITC and FP: Tris pH 8, 200 mM KCl, 5% glycerol; MST: 50 mM Tris pH 8, 200 mM NaCl, 1 mM DTT, BSA, heparin, 0.05% Tween 20
Details in all cases: tags: N-terminal His-eGFP
[1] = target: T1, GFP-9S library array, motif 4 ND N98R;D124G (synthetic construct, N98R;D124G)
T1 chain: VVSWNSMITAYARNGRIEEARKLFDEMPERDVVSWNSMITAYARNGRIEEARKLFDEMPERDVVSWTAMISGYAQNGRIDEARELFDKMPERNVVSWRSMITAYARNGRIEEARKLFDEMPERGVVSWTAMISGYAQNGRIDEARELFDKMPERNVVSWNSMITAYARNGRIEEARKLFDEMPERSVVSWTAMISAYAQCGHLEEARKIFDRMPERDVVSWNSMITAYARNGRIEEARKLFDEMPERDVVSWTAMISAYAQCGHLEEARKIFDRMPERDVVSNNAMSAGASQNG

[2] = target: T2, GFP-9S library array, motif 4 ND N98K;D124Q (synthetic construct, N98K;D124Q)
T2 chain: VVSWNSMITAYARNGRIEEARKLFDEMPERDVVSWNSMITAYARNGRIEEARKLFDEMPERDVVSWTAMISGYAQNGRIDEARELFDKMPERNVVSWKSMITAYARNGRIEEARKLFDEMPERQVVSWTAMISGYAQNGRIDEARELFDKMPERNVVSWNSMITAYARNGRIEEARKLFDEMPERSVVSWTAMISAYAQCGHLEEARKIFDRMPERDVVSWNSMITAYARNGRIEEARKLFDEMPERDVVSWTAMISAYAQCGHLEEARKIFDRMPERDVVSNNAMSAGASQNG

[3] = target: T3, GFP-9S library array, motif 4 ND N98M;D124Y (synthetic construct, N98M;D124Y)
T3 chain: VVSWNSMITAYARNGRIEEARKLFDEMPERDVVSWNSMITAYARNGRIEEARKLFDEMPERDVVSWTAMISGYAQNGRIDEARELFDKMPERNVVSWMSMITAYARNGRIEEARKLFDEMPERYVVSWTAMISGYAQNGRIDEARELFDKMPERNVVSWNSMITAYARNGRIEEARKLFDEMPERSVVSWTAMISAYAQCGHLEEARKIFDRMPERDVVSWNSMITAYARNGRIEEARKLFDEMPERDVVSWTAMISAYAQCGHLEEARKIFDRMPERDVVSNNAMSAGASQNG

[4] = target: T4, GFP-9S library array, motif 4 ND N98C;D124H (synthetic construct, N98C;D124H)
T4 chain: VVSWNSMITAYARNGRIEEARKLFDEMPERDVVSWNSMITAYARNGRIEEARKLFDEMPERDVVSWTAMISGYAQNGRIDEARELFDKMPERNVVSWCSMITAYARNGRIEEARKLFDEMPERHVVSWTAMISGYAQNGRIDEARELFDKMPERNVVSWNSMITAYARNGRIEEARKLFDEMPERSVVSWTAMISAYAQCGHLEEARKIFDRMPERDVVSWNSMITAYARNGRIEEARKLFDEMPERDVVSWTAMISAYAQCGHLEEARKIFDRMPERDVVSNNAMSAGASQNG

[5] = target: T5, GFP-9S library array, motif 4 ND N98C;D124T (synthetic construct, N98C;D124T)
T5 chain: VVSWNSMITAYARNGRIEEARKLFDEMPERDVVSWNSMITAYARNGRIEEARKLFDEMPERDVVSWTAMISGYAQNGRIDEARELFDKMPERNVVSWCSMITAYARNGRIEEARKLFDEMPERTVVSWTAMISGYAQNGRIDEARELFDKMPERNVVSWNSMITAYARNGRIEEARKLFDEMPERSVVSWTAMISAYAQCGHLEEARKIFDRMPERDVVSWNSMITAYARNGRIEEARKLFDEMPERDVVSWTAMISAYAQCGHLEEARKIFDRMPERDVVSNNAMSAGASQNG

B1: Cy5-rpoA-G (ssRNA)
RNA: AUUAGACGUGA
[1]; label: 5' Cy5
  Kd: 102 nM
[2]; label: 5' Cy5
  Kd: 81.3 nM
[3]; label: 5' Cy5
  Kd: 167 nM
[4]; label: 5' Cy5
  Kd: 57.7 nM
[5]; label: 5' Cy5
  Kd: 85.3 nM

B2: IR-rpoA-U (ssRNA)
RNA: AUUAUACGUGA
[1]; label: 5' IRDye 800CW
  Kd: 97.3 nM
[2]; label: 5' IRDye 800CW
  Kd: 63.7 nM
[3]; label: 5' IRDye 800CW
  Kd: 682 nM
[4]; label: 5' IRDye 800CW
  Kd: 152 nM
[5]; label: 5' IRDye 800CW
  Kd: 155 nM

B3: IR-rpoA-A (ssRNA)
RNA: AUUAAACGUGA
[1]; label: 5' IRDye 800CW
  Kd: 191 nM
[2]; label: 5' IRDye 800CW
  Kd: 110 nM
[3]; label: 5' IRDye 800CW
  Kd: 488 nM
[4]; label: 5' IRDye 800CW
  Kd: 25.4 nM
[5]; label: 5' IRDye 800CW
  Kd: 150 nM

B4: Cy5-rpoA (ssRNA)
RNA: AUUACACGUGA
[1]; label: 5' Cy5
  Kd: 74.7 nM
[2]; label: 5' Cy5
  Kd: 71.3 nM
[3]; label: 5' Cy5
  Kd: 216 nM
[4]; label: 5' Cy5
  Kd: 124 nM
[5]; label: 5' Cy5
  Kd: 245 nM
